First the molecules themselves.
B1: Zinc finger homeobox protein 3, residues 2643 to 2698; numbered along this chain, Q15911 (parent)
chain: RLRTTITPEQLEILYQKYLLDSNPTRKMLDHIAHEVGLKKRVVQVWFQNTRARERK
B2: Membrane-associated guanylate kinase, WW and PDZ domain-containing protein 3, residues 287 to 329; numbered along this chain, Q5TCQ9 (parent)
chain: MRDETLEPLPKNWEMAYTDTGMIYFIDHNTKTTTWLDPRLCKK

± gives the uncertainty stated by the source.

The variants in one series derive from B1. Nature of the series: abundance fitness (aPCA) (normalised: wild type 0, dead -1); higher = more abundant; growth selection in yeast, the domain comes from the species named. Particulars: Homo sapiens.
Regarding R1T, the abundance fitness was 0.504 ± 0.29.
T7P: the abundance fitness was determined as 0.101 ± 0.14.
Turning to T7S, the abundance fitness was -0.169 ± 0.092.
Regarding T7G, the abundance fitness is -0.072 ± 0.077.
As for T7M, the abundance fitness was -0.228 ± 0.15.
In the case of T7R, the abundance fitness is -0.443 ± 0.082.
As to T7L, the abundance fitness is -0.212 ± 0.083.
With T7A, the abundance fitness stood at 0.08 ± 0.084.
Take T7W: the abundance fitness was -0.719 ± 0.12.
As to T7E, the abundance fitness came out at 0.087 ± 0.096.
As for T7V, the abundance fitness was -0.688 ± 0.1.
The same measure, in the same setting: the same measure for T7N: -0.338 ± 0.2; for T7Y: -0.487 ± 0.26.
As to T7C, the abundance fitness is -0.244 ± 0.12.

Variants of B2 are the subject of another series. Described as above. Particulars: Homo sapiens.
On to P38C, for which the abundance fitness is -1.12 ± 0.12.
For the variant K43G, the abundance fitness was 0.03 ± 0.043.
Turning to K43S, the abundance fitness was determined as 0.002 ± 0.04.
On to K43I, for which the abundance fitness is -0.144 ± 0.047.
On to K43A, for which the abundance fitness came out at 0.011 ± 0.072.
K43E: the abundance fitness worked out at 0.031 ± 0.07.
Regarding K43L, the abundance fitness was -0.011 ± 0.11.
As to T32N, the abundance fitness is -0.215 ± 0.073.
Take T32Y: the abundance fitness was -0.417 ± 0.074.
Turning to T32Q, the abundance fitness was -0.137 ± 0.036.
With T32L, the abundance fitness was -0.152 ± 0.03.
For the variant M1G, the abundance fitness is -0.057 ± 0.032.
Regarding M1R, the abundance fitness is -0.056 ± 0.035.
On to M1D, for which the abundance fitness was -0.026 ± 0.061.
On the same count and under the same terms, with T18Q the figure was -0.624 ± 0.13.
Same read-out and setting: the same measure for T18N: -0.391 ± 0.46; for I26K: -0.196 ± 0.051.
Still for that read-out and setting: with T20M the figure was -0.153 ± 0.042; with T20S, -0.023 ± 0.053.
For the variant T20P, the abundance fitness is -0.48 ± 0.05.
Same read-out and setting: with P10L the figure was -0.613 ± 0.046; with P10C, -0.54 ± 0.11.
P10R: the abundance fitness is -0.685 ± 0.034.
Same read-out and setting: with F25W the figure was -0.077 ± 0.036; with F25K, -0.68 ± 0.086; with F25H, -0.421 ± 0.1.
As for F25M, the abundance fitness was -0.721 ± 0.43.
On to L40K, for which the abundance fitness came out at 0.016 ± 0.04.
For the variant L40P, the abundance fitness is -0.118 ± 0.047.
For the variant L40I, the abundance fitness is -0.102 ± 0.081.
Turning to L40S, the abundance fitness is -0.053 ± 0.033.
E7I: the abundance fitness is -0.218 ± 0.054.
On to E7W, for which the abundance fitness is -0.24 ± 0.044.
On to E7P, for which the abundance fitness was 0.014 ± 0.049.
Same read-out and setting: the same measure for E7C: -0.324 ± 0.067.
As for N29T, the abundance fitness is -0.051 ± 0.039.
In the case of N29R, the abundance fitness is -0.078 ± 0.027.
Same read-out and setting: the same measure for N29P: -0.525 ± 0.095; for D27S: -0.644 ± 0.037.
For D27F, the abundance fitness was -0.716 ± 0.25.
D19C: the abundance fitness was -0.122 ± 0.054.
Take D19I: the abundance fitness was -0.536 ± 0.15.
On to G21R, for which the abundance fitness is -0.237 ± 0.033.
Still for that read-out and setting: the same measure for G21P: -0.682 ± 0.081; for G21L: -0.67 ± 0.036.
As for G21K, the abundance fitness is -0.172 ± 0.066.
Regarding M22V, the abundance fitness was -0.025 ± 0.041.
For the variant M22K, the abundance fitness came to 0.075 ± 0.07.
In the case of M22A, the abundance fitness was found to be 0.081 ± 0.029.
Consider T5P, for which the abundance fitness was -0.023 ± 0.036.
Consider T5H, for which the abundance fitness was -0.059 ± 0.054.
For T30I, the abundance fitness was -0.423 ± 0.19.
Take T30P: the abundance fitness is -0.887 ± 0.092.
Regarding T30W, the abundance fitness was -0.572 ± 0.047.
For the variant T30A, the abundance fitness was -0.116 ± 0.035.
Regarding T30L, the abundance fitness was -0.207 ± 0.035.
Consider E14R, for which the abundance fitness was -0.273 ± 0.035.
With A16P, the abundance fitness was -0.914 ± 0.063.
With A16R, the abundance fitness was -0.076 ± 0.032.
The same measure, in the same setting: with A16D the figure was -0.257 ± 0.042; with A16L, -0.297 ± 0.04; with A16V, -0.193 ± 0.042.
Turning to L36C, the abundance fitness was -0.099 ± 0.039.
The same measure, in the same setting: with L36D the figure was -0.183 ± 0.052; with L36Q, -0.03 ± 0.036; with D37A, -0.436 ± 0.03.
On the same count and under the same terms, the same measure for D37Q: -0.486 ± 0.048.
Regarding D37Y, the abundance fitness is -0.731 ± 0.11.
Turning to D37K, the abundance fitness is -0.407 ± 0.075.
As for R39G, the abundance fitness was -0.314 ± 0.029.
As to R39K, the abundance fitness was -0.309 ± 0.061.
As to R39Q, the abundance fitness was -0.417 ± 0.045.
Still for that read-out and setting: the same measure for R39L: -0.349 ± 0.038; for R39D: -0.317 ± 0.044.
K11I: the abundance fitness is -0.271 ± 0.069.
On to K11L, for which the abundance fitness was -0.08 ± 0.038.
Consider K11M, for which the abundance fitness is -0.161 ± 0.045.
In the case of K11Q, the abundance fitness was -0.041 ± 0.044.
Regarding K31V, the abundance fitness was -0.385 ± 0.033.
As for K31W, the abundance fitness is -0.278 ± 0.036.
K31M: the abundance fitness was -0.071 ± 0.039.
As for K31N, the abundance fitness is -0.159 ± 0.094.
On to P8K, for which the abundance fitness is -0.069 ± 0.041.
Regarding P8S, the abundance fitness was -0.325 ± 0.11.
For P8G, the abundance fitness was -0.13 ± 0.03.
Same read-out and setting: the same measure for P8T: -0.162 ± 0.061; for N12F: -0.198 ± 0.049.
N12P: the abundance fitness was -0.383 ± 0.054.
As to N12Q, the abundance fitness was -0.237 ± 0.046.
For R2E, the abundance fitness was -0.05 ± 0.038.
The same measure, in the same setting: with R2V the figure was -0.091 ± 0.033; with R2A, -0.088 ± 0.039.
For the variant I23G, the abundance fitness was -0.087 ± 0.028.
With I23V, the abundance fitness is 0.03 ± 0.035.
Turning to I23T, the abundance fitness was -0.006 ± 0.042.
As for I23F, the abundance fitness is -0.162 ± 0.098.
In the case of W35V, the abundance fitness was -0.291 ± 0.035.
On to W35L, for which the abundance fitness is -0.146 ± 0.039.
On to D3N, for which the abundance fitness was -0.148 ± 0.067.
In the case of D3M, the abundance fitness is -0.188 ± 0.035.
Same read-out and setting: the same measure for D3R: -0.127 ± 0.032.
Consider D3P, for which the abundance fitness was -0.072 ± 0.053.
As to Y17Q, the abundance fitness was -0.025 ± 0.071.
Still for that read-out and setting: with Y17D the figure was -0.323 ± 0.058.
For the variant Y17V, the abundance fitness turned out to be 0 ± 0.034.
Consider Y17R, for which the abundance fitness was found to be 0.054 ± 0.029.
In the case of Y17L, the abundance fitness was -0.034 ± 0.04.
On the same count and under the same terms, with M15G the figure was -0.334 ± 0.034.
The same measure, in the same setting: the same measure for M15T: -0.039 ± 0.051.
Regarding M15A, the abundance fitness is -0.043 ± 0.038.
For M15S, the abundance fitness was -0.047 ± 0.042.
In the case of K42M, the abundance fitness was -0.1 ± 0.047.
Turning to K42Y, the abundance fitness is -0.223 ± 0.06.
K42W: the abundance fitness was -0.115 ± 0.042.
Regarding K42L, the abundance fitness is -0.086 ± 0.032.
Turning to K42H, the abundance fitness was -0.081 ± 0.045.
For L6K, the abundance fitness is -0.128 ± 0.13.
Consider L6P, for which the abundance fitness is -0.068 ± 0.039.
Take L6R: the abundance fitness was -0.026 ± 0.032.
On the same count and under the same terms, the same measure for L6D: -0.086 ± 0.061; for L6T: -0.018 ± 0.044; for T33W: -0.445 ± 0.042.
T33P: the abundance fitness is -0.684 ± 0.053.
Turning to T33D, the abundance fitness is -0.648 ± 0.044.
On to T33G, for which the abundance fitness is -0.551 ± 0.029.
In the case of T33F, the abundance fitness was -0.584 ± 0.1.
With T33K, the abundance fitness was -0.388 ± 0.059.
For T34I, the abundance fitness was -1.02 ± 0.13.
Regarding T34Q, the abundance fitness was -0.28 ± 0.056.
Consider T34N, for which the abundance fitness is -0.661 ± 0.049.
Consider T34A, for which the abundance fitness was -0.632 ± 0.03.
T34E: the abundance fitness is -0.677 ± 0.045.
For T34K, the abundance fitness is -0.719 ± 0.048.
As for T34S, the abundance fitness is -0.106 ± 0.03.
With Y24R, the abundance fitness is -0.598 ± 0.035.
On to Y24T, for which the abundance fitness is -0.638 ± 0.072.
With Y24W, the abundance fitness is -0.579 ± 0.037.
The same measure, in the same setting: the same measure for Y24D: -0.524 ± 0.12.
For the variant Y24K, the abundance fitness is -0.668 ± 0.071.
In the case of Y24S, the abundance fitness was -0.708 ± 0.058.
As to Y24H, the abundance fitness was -0.574 ± 0.11.
For the variant C41E, the abundance fitness is 0.038 ± 0.044.
C41K: the abundance fitness is -0.015 ± 0.04.
On the same count and under the same terms, the same measure for L9W: -0.492 ± 0.073.
As to L9G, the abundance fitness is -0.681 ± 0.034.
On the same count and under the same terms, the same measure for L9M: -0.106 ± 0.054; for E4S: -0.043 ± 0.045.
Consider E4Y, for which the abundance fitness was -0.319 ± 0.11.
With E4D, the abundance fitness is -0.115 ± 0.055.
As for W13G, the abundance fitness is -0.696 ± 0.033.
On to W13L, for which the abundance fitness is -0.635 ± 0.046.
On to W13F, for which the abundance fitness was -0.221 ± 0.17.
Consider W13M, for which the abundance fitness was -0.398 ± 0.041.

The record behind these values is the Human Domainome abundance scans (Beltran et al. 2025).
